In the DeepSol protein solubility set:

Experiment: soluble on expression in E. coli; label from the status in PepcDB or PDB records

Soluble on expression in E. coli, not soluble:
MGSDKIHHHHHHMSDVYIFCLSMGSPTLNTRVLTNSMELKVGCCGFPVSMKRYFETFDVVEVQKTFYKPPEVKTAEKWRKSAPEDFEFTIKAWQVITHPPSSPTYKKAGIKFENCGFFRPTEVVFMAWEETKKIAKALKAEIIVFQTPKSFRDTAENMENMRAFFSSIDGSFTFCFEPRGWSEESVRAICEELDLVHVVDPFVSKQLYGEICYYRLHGFDYKHKYTDDELEKLLGIVDRDGYVMFNNVHMFDDALRFKKLVEREAKSK
MGSDKIHHHHHHMSEALTIAGVDIQPGTQHQLELPVASLYTDTQVSIPVHVIRAKKDGPKVFVSAAVHGDELNGIEIIRRLIQSKLKLLKGTLILVPMVNVYGVLNQSRYMPDRRDLNRCFPGSPKGSLAGRVAYTFLNSIVQHCDYGIDLHTGAIHRSNLPQIRANLDDEQTLALAQAFGVPVLLNANVRDGSLREAAVNKGTRVLLYEAGQALRFDELSIQTGERGILNVLSSLGLIRKRRLRKKIEPFIANRSDWTRASASGFVCEFAKLGAYVEKGQVLAEINSPLGELIQSVVSNRTGIVIGKQNIPLVLEGDAMFHVAYFGSAADEVAEHIEIMNDQIMPLTTQTI
MGSDKIHHHHHHMSETEPTSEQPHIAITGGAGYIGSRVIYELQQAHPDWEITAIDNFYLGTVQSVGDVDIEHVDIRNRDRLEAALDGADVVMHLAAVSGVDDCEEKQDLAYEVNVQGTDNVAWFCRKTGAALIFPFSMAVIGDPQEFPITVDHPRDPLNWYGRTKLLNERDVETYADGAFPAHQFMISNLYGSHEIDGQTVSKGTVINFFVNRALAGETLTVYEPGTQSRNFIHVKDVARAYVDSCERLLEQLDRGETGVEKYEIASDEDPSVHTVAKLVRDIAADIADIDADVELVENPRGDDETLVDSFTVDTGRTTAALGWTPEHDVESAIRTALESANT
MGSDKIHHHHHHMSEYLEIPELNKAFPFRSFVNEGEVLVYPHWHKEIEIIYALKGSLNLGVNDMPIQLNEGEIQIINGGDVHYFLASPNSERIVIQFDLSLFQEEMQMDGQNGTLREMLTEMAHLSREWPEETTAKVQSLIRNIHLESSNDSPGKHYILKADLLAIIGLIYREIPQKKTQPDSVISEKAVLKSKETLQKLDQIFSYVEKHYQEPVSLQEVADYTGFSTYYFTKFFKRNTGMTFVTFLNDYRLNKAKWMLLNEAFPVTEVAELAGFSSVKTFHHAFKRAMGVAPLKYRKTIYGNN
MGSDKIHHHHHHMSFKKVDLSRYQFDGAQASSIGDLTQLDAADKQRLLYAGIDVNQQNLAGSFMHMNHSGVHCTSRQEGLEILDIKQALDTYHGLPDYFWKLVDRNKDEYTRAADEHLHGGYFIRARAGAKIEAPVQSCLFIKGNGVGQNVHNVVVVEEGAEMHIITGCATAHDTRSVAHLGISEFYVHKGGKLTFTMIHNWGEEAAVRPRSAGYLEEDAVFLSNYVLLKPVTDLQMYPTITLGGRGSVARFNSVIVAPTGSYVDTGNRILLEAPDTRGEIIARTMTTGGTIINRGHIAGHAVPARGHLECKGLILGGGVIHAIPELEGTQDGVELSHEAAVGKIAQEEIEYLMARGLDEDEATSTIVRGFLNVDIMGLPEELEKAVEEQINQLDAGDAM
MGSDKIHHHHHHMSGDTCLCPASGAKPKISGFKGGGLGNKYVQLNVGGSLYYTTVRALTRHDTMLKAMFSGRMEVLTDKEGWILIDRCGKHFGTILNYLRDDTITLPQSRQEIQELMAEAKYYLIQGLVSTCQTALQDKKDSYQPVCNIPIITSLREEDRLIESSTKPVVKLLYNRSNNKYSYTSNSDDHLLKNIELFDKLSLRFNGRVLFIKDVIGDEICCWSFYGQGRKLAEVCCTSIVYATEKKQTKVEFPEARIYEETLNVLLYETPRVPDNSLLEATSRSRSQASPSEDEDTFELRDRVRRIHVKRYSTYDDRQLGHQSTHRD
MGSDKIHHHHHHMSGKNKSVADIMAVCQEMFEDLNFNYARKWKAAKEGRKVIGFLPVYSPIEMIHAAGCLPLGIFGGGDQMEVIHGDAYYQSYICRIPRSTIELGVTNRLDFVDGMIFPFVCDVIRNLSGIWKLMFPNVWSKFFDTPQNYDKSIGGTYYIQELQELKEGLETLTGRKISDADIQRSIGLYNENRRLIREVYAFRAKQPWLAPTSEVYVLMRAGLMMDVEEHNQMLKDYMAAAAKEDRPKRDNVRISIYGSFCEQPPLNLIKSIEMAGCYVVDDDYSLNNRFLMVDVPTTGNPLEALAITYLENSVETSCKYVPDGKVKGQFHVDAVKACGAEGVIYATPSFCDPALLDRPMVCNKLSEAGIPYIAFKYAENSGQMQPIREQAGTFADSIKLWS
MGSDKIHHHHHHMSGRTMSSIYILWDASHIWGLLAWRTAQSLDLPYRLVRGEEIAQGLLSGKPPALLLVPGGNARMKSVALGAAGMQAIRDYVRGGGAYVGFCGGAGLGLSGSEGLGLCPWGRARFTDRMQHFVSGHVHARVARGHDLVPADLCTDACAEPPVPIWWPGRFAPEKTGDVEVLATYTTPCDDFWVADLPLDTLPPGTFSEWESLYDIRLRPTFLEDQPCILSGRYGKGRYVLSYTHLETPDSPTANRWLLHIIRTLGGIEPPLQRVPAWDLENQQAAWLDPDLLHARGIFDDIVTIGRNHCLFFKRNAWLIGWRAGIPGANLNNLYAAVVTAVSNPPTAECTAYWQEQRQPFMRKLALFHEGVKGYLLAERLAMTLSKTFPETVSRESLRNQRAALFGPPMDSGGLYQELLDTLDELLYRQLPHGL
MGSDKIHHHHHHMSHNKFDIIPAASFSNIGLEMIPPFPGLSSWVQCLWVNNDLKNSSRHVEEKLYPDAGSSLTFEIRNTRINARYFHHTRVVTHRWDTSTRHISVRFRPGGAKALLGLDIDDSQNIEIDLFDTPVSQQLSLQPLMDMLPALSADQQVQAVQNWLLTLSYRAQEPSRKWSTLLAHASADLIPPQQLALQNGFSRRTLERQLRKYLGFTPNQLHGFAQIRAARQYLILTPDSLSDIALACGYFDQAHFTNAFREQTLETPLQYRQRKMSQISNR
MGSDKIHHHHHHMSIARLREFVSDLTDIVGDDLHEAALLDRMRAPMTRLLAKDDWLPDAFAQPHPEFYQQYLLHCDPKQRFSVVSFVWGPGQKTPIHDHTVWGMIGMLRGSEHSTRFEVVGPDQPLRVAQTDVLEEGGIDVVSPSVGDVHQVSNVYDDRVSISIHVYGANIGRVRRHVYNGETGGVKEFVSGFSSSVVPNLWNAN
MGSDKIHHHHHHMSIESILKNRSSTRAFLDKPVTKETLDLIFAHAQLSPSNCNVQPWQTCVVSGQTKDTLKQKFMQTLMSGASPNPDFNWLPQYQGVHRDRQFGSANALYSSIGVAREDKKARQMAMVRNWQFFDAPHAVFFTMDKYLDIMGAVDLGIYAQTLSLIMADHGISNCMQGALGQFPDPVREILNLPAERGILFGMSFGYADDSAAVNNTRTDREPIENAVAFFD
MGSDKIHHHHHHMSIFISGSLAYDRIMNFPGKFSDHILPDKIHILNVCFLIDRLEEKRGGTAGNIAYSLALLGEKPTILATVGKDFDRYEEVLTGLGLPQDGIRKMDDQFTAGAYITTDQSDNQITGFNPAAMSHPCGYQFNGVTPENDLAIVSPGNLQDMVELPRKFRSMGMRYIFDPGQQITALTGDSMLECINGAHMLVSNDYELEMIMKATGRTKAELLTMTDYIITTLGENGSRIDNGEPVMVGIARPRQVLDPTGAGDAFRAGLLKGLTDGLDVAGAAKIGATCASFCVEHYGTQEHTFTPEEFKARHQAAFGA
MGSDKIHHHHHHMSIPNAIKHTQTDSALSNIALSNTRDHLLTTGYKLIAQKGFTAVGIKQILDTAGVPKGSFYHYFASKEAFGEAIISHYFTQYKQRLNIIGSQDVSAQQKLYDYFQNWYDTQQSGCDHEKCLVVKLSAEVSDMSEPMRKVLHTGYQQTITWLATQIKAGWVDGSVPHPANVAAESMAKRWYFAWLGASLVTKISQTDTPLAEAWLMTTTAMGR
MGSDKIHHHHHHMSIQTSDPNETSDLKSLSLIAAHSHITGLGLDENLQPRPTSEGMVGQLQARRAAGVILKMVQNGTIAGRAVLVAGPPSTGKTALAMGVSQSLGKDVPFTAIAGSEIFSLELSKTEALTQAFRKSIGIKIKEETELIEGEVVEIQIDRSITGGHKQGKLTIKTTDMETIYELGNKMIDGLTKEKVLAGDVISIDKASGKITKLGRSFARSRDYDAMGADTRFVQCPEGELQKRKTVVHTVSLHEIDVINSRTQGFLALFTGDTGEIRSEVRDQINTKVAEWKEEGKAEIVPGVLFIDEVHMLDIECFSFINRALEDEFAPIVMMATNRGVSKTRGTNYKSPHGLPLDLLDRSIIITTKSYNEQEIKTILSIRAQEEEVELSSDALDLLTKTGVETSLRYSSNLISVAQQIAMKRKNNTVEVEDVKRAYLLFLDSARSVKYVQENESQYIDDQGNVQISIAKSADPDAMDTTE
MGSDKIHHHHHHMSKKTYYYHSESEDLVSSAQQDFQLPDDYQFFREGVAWQFWNGLVRSLACAFAWLYSRLFLLVKVKGKEKLRPFKKQGYFVYGNHTQMLGDPFNPMTIVNPYHYYALAAQANWGIPFLGKYVIPAAGLPVGKNIKQSIRLLKDVKYAYEEKQAAIVIYPEAHLWPYYTKIRPFPATSFNFPVSLKAPAFAMTTTYQPCRWRKRPKITVYIDGPFYPDEKLGKKAAQEKLHGEIAKSMQERAKLSTCEYCSYVKIDSKN
MGSDKIHHHHHHMSKRLLLFDFDETYFKHNTNEEDLSHLREMEKLLEKLTNNNEVITAVLTGSTFQSVMDKMDQVNMTFKPLHIFSDLSSKMFTWNNGEYVESETYKKKVLSEPFLFEDIEDILRHISAQYNVEFIPQRAFEGNETHYNFYFHSTGNHNNDSRILEALVRYANDQNYTARFSRSNPLAGDPENAYDIDFTPSNAGKLYATQFLMKKYNIPVKSILGFGDSGNDEAYLSYLEHAYLMSNSRDEALKQKFRLTKYPYYQGITLHVKEFVEGKYDY
MGSDKIHHHHHHMSKSVDETVFDFFELLLHEDDSAFSASPIKSQASATSAFDVSIKTEAQQLNDAILAEHERSKVDARASIVPEAQLARAKSIVTVSTKENAEPLVNKQALERLLAPVLKTQAPDIPKPTELNEQPLPLPKPVEAIAVTNVVKPADVESQQVEIISTAPETQVGFAPPSVTKDLQEVLDDEFQVLFFKVAGLTLAVPLVSLGGIVKVERINHIIGRPSWFLGVQTHREEQLNLVDTCAWVMPEKYTDKLAQSVNYQYLVLLEGSNWGLACESLLNAVKIHKSQVNWRSKAGKRPWLAGVVKEQMCGILHVQALVQMLDAGLGCQDSIG
MGSDKIHHHHHHMSKWQSKEQLIQLLSSLVEIPSITGTEAEVILPDFVVEQLSDLQYFKENPHHLQKNPTGDGRYFVTALVKKSDRTKNTVILVSHFDVVDVQDYGVWKEDAFNPKKLTSMFYAHKDELPDHVREDIEQGEWLFGRGTMDMKCGLALQMAMIEQACEGRFDGNVLLLAVPDEEVNSVGMRAAIPRLLELAREHDLEYKTVLNSEPMFARHPGDQKKYIYTGSIGKVLPGFLCYGKETHVGEPFAGLNGSYMASLITAELELNTDLCDIVEGEASPPPTNLLQRDLKEDYSVQIPHRAVTLFNLFLLEKSMTDVVSLLRQKVTKVAEKIEEKYEKQAYRFSKYNPFIPPNMKVNVLTYEELIAYAIEQHGQEKINEIQSSIIKNREEKDDRAVTIDLVDKLAILCKEKAPMIVLFFAPPYYPAVSSRNNLLIKEVVTEMEKYANLNHNITFENQNYFGGISDLSYVGLQNPLDSMSSLVDNMPLWDKGYSIPLQELEEFDVPVLNMGPVGKDAHQWTERLDVNYAFETLLDMLPICIEKLLVSNKITQV
